# Measured values reported in patent US20180155451A1 (published 2018).
# Where a chain is given by its changes, count along the chain named.
# B1: GpH7-A5/GpH7-B3 variant D265_01G/GpL16-k0 (antibody, human IgG1, kappa)
# heavy 1: not shown
# heavy 2: not shown
# light: DIVMTQSPLSLPVTPGEPASISCQASESLVHSNRNTYLHWYLQKPGQSPQLLIYKVSNRFSGVPDRFSGSGSGTDFTLKISRVEAEDVGVYYCSQNTHVPPTFGQGTKVEIERTVAAPSVFIFPPSDEQLKSGTASVVCLLNNFYPREAKVQWKVDNALQSGNSQESVTEQDSKDSTYSLSSTLTLSKADYEKHKVYACEVTHQGLSSPVTKSFNRGEC
# notes: Heterodimerized anti-glypican-3 IgG1; alteration in only one H chain (GpH7-B3 side); also called He Ab
# B2: GpH7-A5/GpH7-B3 variant D265_04F/GpL16-k0 (antibody, human IgG1, kappa)
# heavy 1: not shown
# heavy 2: not shown
# light: B1 light
# notes: Heterodimerized anti-glypican-3 IgG1; substitution in only one H chain (the GpH7-B3 chain); also called He Ab
# B3: GpH7-A5/GpH7-B3 variant S239_16H/GpL16-k0 (antibody, human IgG1, kappa)
# heavy 1: not shown
# heavy 2: not shown
# light: B1 light
# notes: as for B1
# B4: GpH7-A5/GpH7-B3 variant D265_16H/GpL16-k0 (antibody, human IgG1, kappa)
# heavy 1: not shown
# heavy 2: not shown
# light: B1 light
# notes: as for B2
# B5: GpH7-A5/GpH7-B3 variant D265_12R/GpL16-k0 (antibody, human IgG1, kappa)
# heavy 1: not shown
# heavy 2: not shown
# light: B1 light
# notes: as for B2
# B6: GpH7-A5/GpH7-B3 variant P238_13S/GpL16-k0 (antibody, human IgG1, kappa)
# heavy 1: not shown
# heavy 2: not shown
# light: B1 light
# notes: as for B1
# B7: GpH7-A5/GpH7-B3 variant H268_04F/GpL16-k0 (antibody, human IgG1, kappa)
# heavy 1: not shown
# heavy 2: not shown
# light: B1 light
# notes: as for B2
# B8: GpH7-A5/GpH7-B3 variant D265_07I/GpL16-k0 (antibody, human IgG1, kappa)
# heavy 1: not shown
# heavy 2: not shown
# light: B1 light
# notes: as for B1
# B9: GpH7-A5/GpH7-B3 variant S239_11K/GpL16-k0 (antibody, human IgG1, kappa)
# heavy 1: not shown
# heavy 2: not shown
# light: B1 light
# notes: as for B1
# B10: GpH7-A5/GpH7-B3 variant D265_06M/GpL16-k0 (antibody, human IgG1, kappa)
# heavy 1: not shown
# heavy 2: not shown
# light: B1 light
# notes: as for B2
# B11: GpH7-A5/GpH7-B3 variant D265_06M/GpL16-k0 (antibody, human IgG1, kappa)
# heavy 1: not shown
# heavy 2: not shown
# light: B1 light
# notes: as for B1
# B12: GpH7-A5/GpH7-B3 variant D265_03V/GpL16-k0 (antibody, human IgG1, kappa)
# heavy 1: not shown
# heavy 2: not shown
# light: B1 light
# notes: as for B1
# B13: GpH7-A5/GpH7-B3 variant D265_02A/GpL16-k0 (antibody, human IgG1, kappa)
# heavy 1: not shown
# heavy 2: not shown
# light: B1 light
# notes: as for B1
# B14: GpH7-A5/GpH7-B3 variant D265_08L/GpL16-k0 (antibody, human IgG1, kappa)
# heavy 1: not shown
# heavy 2: not shown
# light: B1 light
# notes: as for B1
# B15: GpH7-A5/GpH7-B3 variant P238_18N/GpL16-k0 (antibody, human IgG1, kappa)
# heavy 1: not shown
# heavy 2: not shown
# light: B1 light
# notes: as for B1
# B16: GpH7-A5/GpH7-B3 variant D265_20W/GpL16-k0 (antibody, human IgG1, kappa)
# heavy 1: not shown
# heavy 2: not shown
# light: B1 light
# notes: as for B2
# What was measured:
# [1] = target: T1, FcγRIIa R (extracellular domain, C-terminal His tag) (human, UniProt P12318 34-217); experiment: ratio of He/Con_2aR to He/Con_2b (FcγRIIb); SPR relative binding
# T1 construct: extracellular domain; also called FcgRIIa R type; 2aR; not shown: His tag attached to the C terminus
# T1 sequence (looked up): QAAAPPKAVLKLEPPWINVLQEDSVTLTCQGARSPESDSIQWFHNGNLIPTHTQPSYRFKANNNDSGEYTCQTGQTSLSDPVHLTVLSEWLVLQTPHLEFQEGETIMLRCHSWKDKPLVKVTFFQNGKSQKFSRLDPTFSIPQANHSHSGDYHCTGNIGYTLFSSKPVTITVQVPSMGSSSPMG
# Method: (§1) The heterodimerized antibodies He Abs in which one of the H chains was introduced with an alteration were assayed for their binding activities to each activating FcγR and inhibitory FcγR according to the method described in Example 4. […] The activating FcγRs in FIGS. 26, 27, 28, and 29 are FcγRIa, FcγRIIa (R), FcγRIIa (H), and FcγRIIIa, respectively.
# (§2) Analysis of interaction between objective antibody and the FcγR was carried out using Biacore T100 (GE Healthcare). HBS-EP+ (GE Healthcare) was used as the running buffer, and the measurement temperature was set to 25° C. Chips produced by immobilizing the antigen peptide by the amine coupling method to a Series S Sencor Chip CM5 (GE Healthcare), or alternatively, chips produced by allowing preliminarily biotinylated antigen peptides to interact with and immobilize onto a Series S Sensor Chip SA (certified) (GE Healthcare) were used. Antibodies of interest were captured onto an antigen peptide-immobilized chip, and allowed to interact to each FcγR diluted with running buffer. To regenerate and repeatedly use the chip, the antibodies captured on the chip were washed off by reacting 10 mM glycine-HCl, pH 1.5.
# [2] = target: T2, FcγRIIb (extracellular domain, C-terminal His tag) (human, UniProt P31994 43-217); experiment: SPR (Biacore), antibody captured on antigen-peptide chip, FcγR as analyte; relative binding amount
# T2 construct: extracellular domain; also called FcgRIIb; 2b; not shown: His tag attached to the C terminus
# T2 sequence (looked up): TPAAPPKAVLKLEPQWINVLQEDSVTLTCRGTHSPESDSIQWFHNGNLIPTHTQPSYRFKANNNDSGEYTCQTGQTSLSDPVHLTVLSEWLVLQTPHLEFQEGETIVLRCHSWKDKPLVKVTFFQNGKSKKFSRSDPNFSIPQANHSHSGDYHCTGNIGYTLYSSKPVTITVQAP
# Method: as §1, §2
# [3] = target: T1, FcγRIIa R (extracellular domain, …); experiment: as above
# Method: as §1, §2
# FcγRIIa H [4] = target: T3, FcγRIIa H (human, UniProt P12318 34-217); experiment: SPR (Biacore), antibody captured on antigen-peptide chip, FcγR as analyte; binding relative to GpH7-A5/GpH7-B3/GpL16-k0 = 100
# T3 construct: extracellular domain; also called FcgRIIa H type; 2aH
# T3 sequence (looked up): T1 sequence (looked up) with R134H
# FcγRIIb = target: T4, FcγRIIb (human, UniProt P31994 43-217); experiment: as above
# T4 construct: extracellular domain; also called FcgRIIb; 2b
# T4 sequence (looked up): T2 sequence (looked up)
# FcγRIIa H [5] = target: T3, FcγRIIa H; experiment: ratio of He/Con_2aH to He/Con_2b (relative SPR binding to FcγRIIa H over that of the same antibody to FcγRIIb)
Binder,He_2aR/2b (IIaR/IIb) [1],He/Con_2b [2],He/Con_2aR [3],He/Con_2aH (FcγRIIa H [4]),He/Con_2b (FcγRIIb),He_2aH/2b (IIaH/IIb) (FcγRIIa H [5])
B1,1.49,16.1 % of control (GpH7-A5/GpH7-B3/GpL16-k0 = 100),24.1 % of control (GpH7-A5/GpH7-B3/GpL16-k0 = 100),–,–,–
B2,–,–,–,4.1 % of HeCon Ab,3.2 % of HeCon Ab,1.28
B3,1.4,49.4 % of control (GpH7-A5/GpH7-B3/GpL16-k0 = 100),69.2 % of control (GpH7-A5/GpH7-B3/GpL16-k0 = 100),–,–,–
B4,–,–,–,48.6 % of HeCon Ab,38.3 % of HeCon Ab,1.27
B5,–,–,–,28 % of HeCon Ab,15 % of HeCon Ab,1.87
B6,1.26,70.4 % of control (GpH7-A5/GpH7-B3/GpL16-k0 = 100),88.9 % of control (GpH7-A5/GpH7-B3/GpL16-k0 = 100),–,–,–
B7,–,–,–,111 % of HeCon Ab,89.6 % of HeCon Ab,1.24
B8,2.57,1.3 % of control (GpH7-A5/GpH7-B3/GpL16-k0 = 100),3.4 % of control (GpH7-A5/GpH7-B3/GpL16-k0 = 100),–,–,–
B9,1.96,24.7 % of control (GpH7-A5/GpH7-B3/GpL16-k0 = 100),48.5 % of control (GpH7-A5/GpH7-B3/GpL16-k0 = 100),–,–,–
B10,–,–,–,13.5 % of HeCon Ab,10 % of HeCon Ab,1.35
B11,1.58,10 % of control (GpH7-A5/GpH7-B3/GpL16-k0 = 100),15.8 % of control (GpH7-A5/GpH7-B3/GpL16-k0 = 100),–,–,–
B12,1.8,3.2 % of control (GpH7-A5/GpH7-B3/GpL16-k0 = 100),5.8 % of control (GpH7-A5/GpH7-B3/GpL16-k0 = 100),–,–,–
B13,1.71,19.9 % of control (GpH7-A5/GpH7-B3/GpL16-k0 = 100),33.9 % of control (GpH7-A5/GpH7-B3/GpL16-k0 = 100),–,–,–
B14,1.46,4.6 % of control (GpH7-A5/GpH7-B3/GpL16-k0 = 100),6.6 % of control (GpH7-A5/GpH7-B3/GpL16-k0 = 100),–,–,–
B15,1.26,73.2 % of control (GpH7-A5/GpH7-B3/GpL16-k0 = 100),91.9 % of control (GpH7-A5/GpH7-B3/GpL16-k0 = 100),–,–,–
B16,–,–,–,3.2 % of HeCon Ab,1.1 % of HeCon Ab,2.86
